Measured values as given in the RNAGym collection of RNA variant scans (doi:10.1073/pnas.2313332121).
This sample holds only a part of the variants without activity.

B1: TPR 5TU (parent)
chain: GGAUCUUCUCGAUCUAACAAAAAAGACAAAUCUGCCACAAAGCUUGAGAGCAUCUUCGGAUGCAGAGGCGGCAGCCUUCGGUGGCGCGAUAGCGCCAACGUUCUCAACUAUGACACGCAAAACGCGUGCUCCGUUGAAUGGAGUUUAUCAUG

Variants of: B1
Assay: polymerase ribozyme fitness, log enrichment relative to wild type (log ratio); higher = more active; in vitro selection for triplet polymerase activity
Method in brief: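 In triplicate, a single round of in vitro selection was run on each mutant library, PCR-built and transcribed, covering one subunit of a heterodimeric triplet polymerase ribozyme. Frozen incubation at −7 °C followed annealing with a biotinylated primer, partner subunit and triplets, and extended constructs were then gel-excised, streptavidin-captured and taken through RT-PCR. Fitness is the logarithm of genotype enrichment over wild-type enrichment, from inverse-variance-weighted replicate averages of Illumina-sequenced inputs and outputs. […] only genotypes with ≥10 input reads and ≥1 read per output were kept.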

Variant	polymerase ribozyme fitness (log ratio)
C57U G68A C75G C76G C87A A98U U145C	≤ -4.2
U56A U82A C96A C114G	-3.42
G59A U61A C69A A142C	-3.27
U56G C85G A119G G141C	-2.08
G58U G84A	-0.866
C57A A107U	-3.62
C57U C85A C96G C116U G143C U148A	≤ -4.2
G58A G80U U151G	≤ -4.2
G58C G88U C105A G141C U144G U146G	≤ -4.2
C57G C129G	-2.74
C57U A64U G92C C105U	≤ -4.2
C57U A121U C129U	-0.101
G58A G92A U127C U135G G143U U151G	≤ -4.2
C57G G83U A147U	0.219
G58U C69A C85U C132G G133C G141C	≤ -4.2
U56G C129U	-0.408
G58A G83A	-0.976
U56A G84A A98U U101C	-1.09
G59A C123U G136C C149G	-4.17
U56G G62U C85A A119C C131U	-1.78
G58U U61A U135A	-1.67
U56A U82G C96U A120G	-0.394
U56C C57A	0.0626
G59C G65C G136U	≤ -4.2

Variant	polymerase ribozyme fitness (log ratio)
C57U U151G	-3.63
U56C C103G C129U	-4.1
G59A A66C G84A A89U	≤ -4.2
G58A G94A U135G U144C	-1.98
G59C A89G U139C U144C	-3.75
G58U G81C C93G	-3.21
C57A A73G	0.866
G59A U61A C72A	≤ -4.2
U56G A60G	-0.515
C57U U146G	-0.656
U56A G92A A150G	-2.08
C57G U82A A91C A115G C125A C149A	≤ -4.2
U56G	-0.573
U56C	-0.389
U56A G86U	-0.958
U56A G86C	≤ -4.2
C57A G83A	-0.934
G58C A60G G81U G88A C108G G117C A119U G143C	≤ -4.2
G58C C87U U135C	-2.22
G58U C75G G81A G92U A142G U144A	≤ -4.2
G58A C87U A89U A106U	-2.54
G58A G62C U82G A106G G141C	-4.01
C57U A147U	1.47
G58C C75U C95U C99G U135C	≤ -4.2

Variant	polymerase ribozyme fitness (log ratio)
U56A U139C	-3.15
C57G C85A	-3.21
C57U C69U	-0.915
U56A U61G U134G	-3.93
C57U C95U U101C	-0.863
C57A C69A C72U C85A	-3.55
U56A U135A	-1.16
G58U G59C U78A C108G U148A	≤ -4.2
G58A G81C G84A G133C U144G	-0.672
G58A C96G	-0.616
G58A A60C G74A C85G C116G C123U C149G	≤ -4.2
G59C C85A C95U A137C	≤ -4.2
C57U G59A A73G C79U	≤ -4.2
G58C A66G	-3.76
C57G C85A C118U G143C	-4.1
G59C C76A C85G C118U	-2.89
G58C G92U A122G	-1.45
C57A G92C C123A	-0.277
U56G C96A	-1.15
U56A G84A C105A C131U	-1.2
G59C A97U A106G C118G G124A U145G	-2.18
G59A C85A C95U C103U U134A	-3.2
G58U G83U C118U A137U	≤ -4.2
G58A U61A	-0.894

Variant	polymerase ribozyme fitness (log ratio)
U56C G83U	-0.525
U56A G143C	-2.27
G58A A115C U135C G152U	≤ -4.2
G59C C63A G126A	-0.167
C57U G58C G86A U102A C116A	-2.47
C57U U145G	-0.309
C57U U145A	0.046
U56G G62C A120C C132A U139G	≤ -4.2
G58C C87A G136A U144G	≤ -4.2
C57G C95U U102G	-2.74
G59C C85A	-0.943
G59A U77C	-3.69
G59A G70C	-2.8
C57U G83C C87A G94U U146C	≤ -4.2
G58A C63A	0.255
G59A A73U C75U C87A C95A G100U U127G A150C	≤ -4.2
G58A A98G	0.621
U56A U127G	-2.83
G58A G81A G86A C93U G112C C116U C149G	1.13
U56A U148C	-1.25
U56A U61G G88C G136U	≤ -4.2
C57G G59A G81C U104G A120U	-1.84
U56A G88C C99U A119G	≤ -4.2
G58C G59C	0.523

Variant	polymerase ribozyme fitness (log ratio)
G58U G141C A147U	-0.128
G59C C93U G124C C125U A147U	-0.985
G58C C93U A110G	-3.82
G58U U61G	-1.81
U56C C69A U135A	-3.01
C57U U127A U151G	≤ -4.2
G58C C96G C125G G143U	≤ -4.2
U56C G80U	-0.2
C57A C85A A147G	-1.09
G59C C95U A106G C116A	0.288
G59C A115C	-0.396
C57A C85U U146C	-0.426
C57U A107C	-3.3
G59C G81U C95U G141A	-3.32
C57A U145C	0.674
G58C U134G A150U	-3.62
G59A C132A	-2.31
G58C C87U C114U	-2.21
G59A U90A A98G C103A	≤ -4.2
C57U C87G A107C C108U U135A U151C	≤ -4.2
C57G A97U	-0.704
C57U A64U G92A A138U U145G A150C	≤ -4.2
C57U G58A A60U C69U C76A G88U G141A	≤ -4.2
C57U G58C C79U	-1.86

Variant	polymerase ribozyme fitness (log ratio)
C57U U61G C76A	≤ -4.2
U56G A64C	≤ -4.2
C57A C85U G143A	-0.323
U56A G88C A122G C123G	≤ -4.2
G58A G94A A106C	-0.37
G59A A60G U77G U127C	≤ -4.2
C57G G59C	-0.566
C57G G59A	-0.436
G58C A142U U146A	-1.03
U56A G94A A97U	-1.41
C57A A97U G124A G140U	-4.13
C57U C149U	-1.28
C57G A110U C123A	-4.11
C57U G86U C96A U109A U146A	-2.45
U56A U82G U139A	-4.02
G58C C93A G141C	-2.47
U56A U146A	-0.732
G59A U82G G117U	0.479
G59A G65C G68A U77C G133U	≤ -4.2
U56G U61G G128U	-3.73
C57U A73G G74A C114G U135A U151G	≤ -4.2
G59C A138C	-3.7
C57A G92C G133A	-4.05
C57A U78G G86C A89U C96U A120U C129G	≤ -4.2

Variant	polymerase ribozyme fitness (log ratio)
G59A C63G C69G C93U	-2.27
G58A C69A U82G A120U U134C	-1.34
C57G C123G	-0.87
U56G C69U A91U C105G U130A	≤ -4.2
G58A C76G C125U C132A G133C	≤ -4.2
G59A U101A	0.287
G58A G84A A142U G152A	-2.68
G58C C116U	0.354
G58C C116G	0.494
G59C C79A C93U	≤ -4.2
C57U G59C G83C	-1.17
G58A G84C	-1.94
C57U C76U C129G	-3.51
G58C G124C	-0.411
C57G U148A	-3.25
C57G G59U A60G C85G A89U A97U G128A U148A	≤ -4.2
G58U G80U U104G	-2.41
C57U U82G	0.0517
U56G G83A C87G A120U U135C	≤ -4.2
G58A C63U C93A C105A	-4.05
C57A A113G	-1.32
G59A G70C C85U A91U	≤ -4.2
G58A A89U G94U	-3.19
